The source of these data is US5763177, “Systematic evolution of ligands by exponential enrichment: photoselection of nucleic acid ligands and solution selex” (NeXstar Pharmaceuticals, Inc.).

Series [1] deals with T1, R17 bacteriophage coat protein (Bacteriophage R17, UniProt P69170 P69170:1-129). Nature of the series: photocrosslinking at 308 nm 5 min, 6.75 nM RNA, 120 nM protein. As to conditions: tags: purified from R17 phage propagated in E. coli S26; chain copies: 2; hairpin. How it is done: RNA-7 (SEQ ID NO:4) (FIG. 11) was prepared using methodology as reported in Example 1 using a plasmid instead of a DNA template. The photocrosslinking was performed as described in Example 3. A 4 ml reaction mixture consisting of 6.75 nM RNA and 120 nM R17 coat protein was irradiated, 2 ml at a time, at 308 nm with unfocused emission from a XeCl excimer laser. The laser produced 50 mJ/pulse and was operated at 10 Hz. The reaction proceeded to near quantitative crosslinking, 85–90%, in 5 min of irradiation. After crosslinking, 1 ml of the total reaction mixture was removed; EDTA (80 mM), SDS (0.1%), and CaCl_2 (0.1 mM) were added; the free (unbound) RNA present was purified away; and the protein digested with Proteinase K at 60° C. for 30 min. The RNA bound to residual protein was ethanol precipitated to remove salts and spun to a pellet. The pellet was washed three times with 70% ethanol to remove any residual salts. A reverse transcription reaction was employed to make a complementary DNA copy of the RNA template. A 13-base […] was annealed to the RNA and the reverse transcription reaction was performed under the standard conditions of the manufacturer, Gibco (Gaithersburg, Md.), and was stopped after 1 hr. […] No stop in the 31 nucleotide region of the gel appeared; this established that the reverse transcriptase had read through the position of the crosslink. […]
T1 sequence (P69170 whole entry, one chain of several): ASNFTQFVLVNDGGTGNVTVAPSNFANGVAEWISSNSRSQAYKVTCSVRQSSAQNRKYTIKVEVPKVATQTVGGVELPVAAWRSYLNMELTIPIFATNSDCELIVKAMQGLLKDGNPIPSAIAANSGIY

Series [2] addresses T2, HIV-2 Rev (Human immunodeficiency virus 2, UniProt P04615 P04615:1-100).
T2 sequence: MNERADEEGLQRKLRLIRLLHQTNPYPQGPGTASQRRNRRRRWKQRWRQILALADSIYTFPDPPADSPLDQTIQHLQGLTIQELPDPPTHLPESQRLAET
Nature of the series: photocrosslinks (data not shown); no laser-independent crosslink (FIG. 19). As to conditions: hairpin.

Series [3] deals with T3, HIV-1 Rev (Human immunodeficiency virus 1, UniProt P04618 P04618:1-116). The experiment in a line: monophasic; crosslinks with and without laser, also at 50 nM Rev in human nuclear extract (FIG. 20). As to conditions: hairpin. As to the method:
To test for the ability of trunc24 (SEQ ID NO:59) to discriminate HIV-1 Rev in a complex mixture, trunc24 and 10 µg of human fibroblast nuclear extract together with decreasing amounts of HIV-1 Rev (FIG. 20). At 50 nM Rev and a 1:100 weight ratio of Rev to nuclear extract, it was possible to see a very significant crosslinked product between trunc24 and Rev.

Series [4] has as its target T1, R17 bacteriophage coat protein. Nature of the series: filter; value only in figure; TMK buffer 10 mM Mg acetate, 80 mM KCl, 100 mM Tris pH 8.5, 4 C. The note with it: tags: purified from R17 phage propagated in E. coli S26; chain copies: 2; label: 32P; hairpin. How it is done:
(§1) RNA-protein binding curves for hairpin variants RNA1 (SEQ ID NO:1), RNA-2 (SEQ ID NO:2) and RNA-3 (SEQ ID NO:3) to the bacteriophage R17 coat protein are shown in FIG. 7. The association constants between coat protein and the RNA hairpin variants were determined with a nitrocellulose filter retention assay described by Carey and co-workers (Carey et al. (1983) supra). A constant, low-concentration of ^32p-labeled RNA was mixed with a series of coat protein concentrations between 0.06 nM and 1 µM in 10 mM magnesium acetate, 80 mM KCL, 80 Ag/ml BSA, and 100 mM Tris-HCl (pH 8.5 at 4° C.) (TMK buffer). These were the same solution conditions used in the crosslinking experiments. After incubation at 4° C. for 45–60 min, the mixture was filtered through a nitrocellulose filter and the amount of complex retained on the filter determined by liquid scintillation counting.

In series [5] the target is T2, HIV-2 Rev. Nature of the series: photocrosslinking 325 nm 4 min, 500 nM protein, 20 ug tRNA, 37 C. As to conditions: hairpin. The text has this: (§2) The sequences are aligned for maximum homology to the 6a sequence (SEQ ID NO:5). Underlines represent potential base pairing as indicted by computer RNA folding algorithms. Dashed underlines represent the 6a ligand "bubble" motif. Sequences flanked by underline represent either loop or bulge regions. Dashes are placed to maximize alignment with 6a. * denotes that two isolates were obtained. +indicates laser independent crosslinking and—denotes the lack of laser independent crosslinking to HIV-1 Rev. […] FIGS. 18 and 19 show the sequence of Trunc2 (SEQ ID NO:58) and Trunc24 (SEQ ID NO:59) and the specificity results. 500 nM protein, 20 µg tRNA, and approximately 1 nM of kinased trunc2 RNA were incubated for 10 min. at 37° C. and irradiated for 4 min at 325 nm. t2-trunc2 RNA irradiated without added protein; t2Rev1/0'-trunc2 RNA, HIV-1 Rev protein and 0 min. of irradiation; t2/Rev1/4'-trunc2 RNA, HIV-1 Rev protein, adn 4 min. of irradiation; t2/Rev1/4'/ PK-trunc2 RNA, HIV1 Rev protein, 4 min. or irradiation, and proteinase K treated as in FIG. 1; t2/Rev2/4'-trunc2 RNA, HIV-2 Rev protein, and 4 min. of irradiation; t2/Tat/ 4'-trunc2 RNA, HIV-1 Tat protein, and 4 min. of irradiation. R-free RNA; XL-crosslinked nucleoprotein complex.

Series [6] concerns the target T3, HIV-1 Rev. Nature of the series: monophasic; laser-dependent crosslinking at 325 nm. As to conditions: hairpin.
From the text: as §2

The target in series [7] is T1, R17 bacteriophage coat protein. The experiment in a line: filter; value only in figure; TMK buffer 10 mM Mg acetate, 80 mM KCl, 100 mM Tris pH 8.5, 4 C; near-quantitative crosslinking at 325 nm. The note with it: tags: purified from R17 phage propagated in E. coli S26; chain copies: 2; label: 32P; hairpin.
For series [8] the target is unchanged. The experiment in a line: filter; value only in figure; TMK buffer 10 mM Mg acetate, 80 mM KCl, 100 mM Tris pH 8.5, 4 C; crosslinks max about 40% at 308 nm. The note with it: tags: purified from R17 phage propagated in E. coli S26; chain copies: 2; label: 32P; hairpin. As to the method: as §1
^32P-Labeled RNA sequences RNA-1 (SEQ ID NO:1) and RNA-2 (SEQ ID NO:2) (5 nM) and R17 coat protein (120 nM) were each incubated on ice in 100 mM Tris-HCl (pH 8.5 at 4° C.), 80 mM KCl, 10 mM magnesium acetate, […] of BSA for 15–25 min before irradiations. These are conditions under which the RNA is fully bound to the coat protein. […] Crosslinked RNA was separated from uncrosslinked RNA by PAGE, and the yields were determined by autoradiography.

T3 sequence (P04618 whole entry, one chain of several): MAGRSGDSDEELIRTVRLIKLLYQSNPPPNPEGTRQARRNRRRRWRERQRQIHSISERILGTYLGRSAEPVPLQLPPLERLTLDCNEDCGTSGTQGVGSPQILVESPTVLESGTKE

B1: RNA-7 (ssRNA)
RNA: GAACAUGAGGAUUACCCAUGAAUUCGAGCUCGCCCGGGCUCUAG
modifications: 5-iodouracil in place of U
For the molecule B1, the binding result in series [1] is “binds”.

B2: trunc24 (ssRNA)
RNA: GGGGAUUAACAGGCACACCUGUUAACCCU
modifications: 5-iodouracil in place of all U
Consider B2, for which the binding result in the series with HIV-2 Rev [2] is recorded as “binds”. Besides, binding with HIV-1 Rev [3] was characterised by a dissociation constant (Kd) of 20 nM.

B3: RNA-3 (ssRNA)
RNA: GGGAGCGAGCAAUAGCCGC
Turning to B3, the binding result in series [4] is reported as “binds”.

B4: trunc2 (ssRNA)
RNA: GGGUGUAUGAAACACCACGUGUGUUUCCACUC
modifications: 5-iodouracil in place of all U
In the case of B4, the binding result in the series with HIV-2 Rev [5] is recorded as “binds”. Further, binding with HIV-1 Rev [6] was put at a Kd of 0.5 nM.

B5: RNA-2 (ssRNA)
RNA: GGGAGCGAGCAAUAGCCGC
modifications: 5-iodouracil in place of U
B5: in series [7], the binding result is “binds”.

B6: RNA-1 (ssRNA)
RNA: GGGAGCGAGCAAUAGCCGC
modifications: 5-bromouracil in place of U
For the molecule B6, in series [8], the binding result is given as “binds”.
